Data: publication PMC5017906

Target: nAChRs on CA1 hippocampal interneurons (not stated (rat brain slices in the text, NMRI mice in the methods))

- attenuation of inward currents induced by the non-specific nAChR agonist DMPP (50 μM) in CA1 hippocampal interneurons in the presence of 6 μM Lypd6, whole-cell patch clamp: 74.8%
- average reduction of inward currents induced by nicotine (100 μM) in CA1 hippocampal interneurons in the presence of 6 μM Lypd6, whole-cell patch clamp at −60 mV: 57.4%
B1: Recombinant human GST-tagged Lypd6 (LY6/PLAUR domain-containing 6), Q86Y78 23-147 (natural protein)
chain: AQSRDFTVKDIIYLHPSTTPYPGGFKCFTCEKAADNYECNRWAPDIYCPRETRYCYTQHTMEVTGNSISVTKRCVPLEECLSTGCRDSEHEGHKVCTSCCEGNICNLPLPRNETDATFATTSPIN
